Assay results published in patent US5807943A, “Synthesis of glycopolymers” (Johns Hopkins University, priority 1997, dated 1998).

Assays:
[1] = target: T1, serum-MBP-CRD (Rattus norvegicus, UniProt P19999); experiment: Solid-phase binding assay, inhibition of 125I-[mannose30-BSA] binding to serum MBP-CRD; conditions: in the concentration range of SBA tested
T1 construct: Recombinant rat MBP-CRDs from serum and liver were expressed and purified; made in house; host or cells: bacteria (expression plasmid-bearing bacterial strains, gift of Dr. Kurt Drickamer)
Method: (§1) Glycoamidase A was from Seikagaku America, Inc. (Rockville, Md.). GlcNAc was purchased from Pfanstiehl Laboratories, Inc. (Waukegan, Ill.). 3-(N-acryloylamino)-propyl β-D-GlcNAc (GlcNAc-NAP) and GlcNAc-O-(CH2)3CH=CH2 were gifts from Dr. Shin-Ichiro Nishimura of Hokkaido University, Japan.
(§2) All steps were carried out at 4° C. Briefly, CRD (50 μl) was coated onto individual polystyrene wells (Immulon 4 Removawell Strips by Dynatech, from Fisher Scientific). […] Ligands and inhibitors were in 0.5% BSA in the above Tris buffer for binding and inhibition. […] The well contents were then removed, washed, and counted in a Packard Minaxi gamma counter.

[2] = target: T2, liver-MBP-CRD (Rattus norvegicus, UniProt P08661); experiment: Solid-phase binding assay, inhibition of 125I-[mannose30-BSA] binding to liver MBP-CRD
T2 construct: Recombinant rat MBP-CRDs from serum and liver were expressed and purified; made in house; host or cells: bacteria (expression plasmid-bearing bacterial strains, gift of Dr. Kurt Drickamer)
T2 sequence (P08661 129-241 limits assumed): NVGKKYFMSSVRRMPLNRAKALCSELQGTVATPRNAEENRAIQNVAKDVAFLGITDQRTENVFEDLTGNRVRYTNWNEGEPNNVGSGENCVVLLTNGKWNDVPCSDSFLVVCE
Method: as §1, §2

soybean agglutinin [SBA]
inhibition of the serum-MBP-CRD (in words) [1]: no significant inhibition | IC50 ([2]; concentration based on Man9 GlcNAc2, 4° C., 20 hr incubation, read-out: I50 for the liver-MBP-CRD): 13.2 µM | I50 for the liver-MBP-CRD ([2]; expressed as mg/ml of SBA): 0.4 mg/mL
